In the data set the target is gamma complex labeled with AF488 on delta' (gammac-AF488);beta sliding clamp (Escherichia coli;Escherichia coli, UniProt P06710-2;P28630;P28631;P28905;P28632;P0A988 1-431;1-343;1-334;1-147;1-137;1-366, |). Kind of data set: fluorescence anisotropy. In general terms: Fluorescence polarisation rises when a labelled molecule tumbles more slowly, as on binding a larger partner.

B1: p/t-DNA-RhX (30-nt primer on 60-nt template) (dsDNA)
DNA 1: TTCAGGTCAGAAGGGTTCTATCTCTGTTGGCCAGAATGTCCCTTTTATTACTGGTCGTGT
DNA 2: ACACGACCAGTAATAAAAGGGACATTCTGG
modifications: C6-amino linker at 5' end of 60mer
Take B1: the binding result is on record as “binds”.

(Values after article PMC2759312.)
